The values below come from patent US20250041437A1, “HUMANIZED MUC1 ANTIBODY AND ANTIBODY DRUG CONJUGATE” (Sun Pharma Advanced Research Company Limited, priority 2023, published 2025).

Assay [1] deals with T1, recombinant human MUC1-SEA (Homo sapiens, UniProt P15941).
T1 construct: on recombinant human MUC1-SEA on SPR; purchased Acrobiosystems MU1-H52H9
T1 sequence (P15941 1039-1148 limits assumed): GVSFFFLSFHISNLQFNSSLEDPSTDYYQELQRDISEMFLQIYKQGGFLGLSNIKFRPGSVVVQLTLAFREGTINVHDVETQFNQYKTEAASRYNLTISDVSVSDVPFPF
Description: Binding strength by Surface Plasmon Resonance (SPR). Conditions: Table 2, variants of humanized anti-MUC1 5F3 mAb. The method, then: Binding strength assessment using Surface Plasmon Resonance (SPR): MUC1 antigen (Acrobiosystems, Cat: MU1-H52H9) was captured on the anti-His immobilized on CM5 chip at 5 μl/min flow rate for 60 s. Post this concentration range of 0-50 nM of antibody or ADC is passed over MUC1 antigen at a flow rate of 30 μl/min flow rate for 120 s, keeping dissociation time of 1800 s at 25°. The dose response generated is evaluated on BIAevaluation software for the calculation of affinity of antibody to antigen as measured by dissociation constant (KD).

In assay [2] the target is T2, MUC1-X-FL-1118 (R1108A, E1109A, N1113A, E1118A) (Homo sapiens, UniProt P15941, E1109A/E1118A/N1113A/R1108A).
T2 construct: wild-type MUC1-X extracellular domain (MUC1-X-FL-WT); His (implied by Ni-NTA purification; pET30a(+) vector); made in house; host or cells: E. coli (pET30a(+))
T2 sequence (P15941 24-115 isoform P15941-8 limits assumed): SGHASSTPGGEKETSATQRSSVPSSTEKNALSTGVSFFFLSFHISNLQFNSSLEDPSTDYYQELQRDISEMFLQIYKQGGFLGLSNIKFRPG
T2 sequence (P15941 1098-1158 R1108A/E1109A/N1113A/E1118A limits assumed): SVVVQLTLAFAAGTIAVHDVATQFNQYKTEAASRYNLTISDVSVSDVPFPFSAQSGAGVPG
The assay is described as follows: Epitope mapping ELISA, mutant MUC1-X-FL-1118. The conditions noted are these: mutation at position 1118. It counts as binding. (In general: An ELISA detects its analyte on a solid surface through an enzyme-linked reagent.)

For assay [3], the target named is T3, MUC1-X-FL-1116 (R1108A, E1109A, N1113A, D1116A) (Homo sapiens, UniProt P15941, D1116A/E1109A/N1113A/R1108A).
T3 construct: wild-type MUC1-X extracellular domain (MUC1-X-FL-WT); His (implied by Ni-NTA purification; pET30a(+) vector); made in house; host or cells: E. coli (pET30a(+))
T3 sequence (P15941 24-115 isoform P15941-8 limits assumed): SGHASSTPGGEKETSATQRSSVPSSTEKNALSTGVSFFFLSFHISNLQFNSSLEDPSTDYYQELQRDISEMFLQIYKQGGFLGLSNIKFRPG
T3 sequence (P15941 1098-1158 R1108A/E1109A/N1113A/D1116A limits assumed): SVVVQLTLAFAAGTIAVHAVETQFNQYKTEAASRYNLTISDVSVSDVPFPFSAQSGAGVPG
Description: Epitope mapping ELISA, mutant MUC1-X-FL-1116. It counts as binding. Conditions: mutation at position 1116.

B1: HM3 LM3: variant of SP66; VH HM3 SEQ ID NO: 9, VL LM3 SEQ ID NO: 14 (antibody, V domains shown)
VH: EIQLVQSGAEVKKPGSSVKVSCKVTGHSITRGSSWHWMRQAPGQGLEWIGYIHYGGGTSYNPSLKSRATLTRDTSTNTAYMELSSLRSEDTAFYFCARYSYDITYRWFFDVWGQGTLVTVSS
VL: DIQMTQSPSTLSASVGDRVTITCRASQNIGTSIHWYQQKPGKAPKLLIKYASESISGVPSRFSGSGSGTEFTLTISSLQPDDFATYYCQQNNNWPLTFGQGTKVEVK
On to B1, for which the ka in assay [1] worked out at 4.47e+07 M⁻¹ s⁻¹.

B2: HM2 LM2: variant of SP66; VH HM2 SEQ ID NO: 8, VL LM2 SEQ ID NO: 13 (antibody, V domains shown)
VH: EIQLVQSGAEVKKPGSSVKVSCKVTGHSITRGSSWHWMRQAPGQGLEWIGYIHYGGGTSYNPSLKSRITITRDTSTNTAYMELSSLRSEDTAFYFCARYSYDITYRWFFDVWGQGTLVTVSS
VL: DIQMTQSPSTLSASVGDRVTITCRASQNIGTSIHWYQQKPGKAPKLLIKRASESISGVPSRFSGSGSGTEFTLTISSLQPDDFATYYCQQNNNWPLTFGQGTKVEVK
Regarding B2, the ka in assay [1] amounted to 1.77e+06 M⁻¹ s⁻¹.

B3: HM2 LM3: variant of SP66; VH HM2 SEQ ID NO: 8, VL LM3 SEQ ID NO: 14 (antibody, V domains shown)
VH: EIQLVQSGAEVKKPGSSVKVSCKVTGHSITRGSSWHWMRQAPGQGLEWIGYIHYGGGTSYNPSLKSRITITRDTSTNTAYMELSSLRSEDTAFYFCARYSYDITYRWFFDVWGQGTLVTVSS
VL: DIQMTQSPSTLSASVGDRVTITCRASQNIGTSIHWYQQKPGKAPKLLIKYASESISGVPSRFSGSGSGTEFTLTISSLQPDDFATYYCQQNNNWPLTFGQGTKVEVK
As for B3, the ka in assay [1] stood at 3.14e+06 M⁻¹ s⁻¹.

B4: HM5 LM3: variant of SP66; VH HM5 SEQ ID NO: 11, VL LM3 SEQ ID NO: 14 (antibody, V domains shown)
VH: EIQLVQSGAEVKKPGSSVKVSCKVTGHSITRGSSWHWMRQAPGQGLEWIGYIHYGGGTSYNPSLKSRITITRDTSTNTFYMELSSLRSEDTAFYFCARYSYDITYRWFFDVWGQGTLVTVSS
VL: DIQMTQSPSTLSASVGDRVTITCRASQNIGTSIHWYQQKPGKAPKLLIKYASESISGVPSRFSGSGSGTEFTLTISSLQPDDFATYYCQQNNNWPLTFGQGTKVEVK
In the case of B4, the ka in assay [1] was found to be 3.97e+06 M⁻¹ s⁻¹.

B5: HM4 LM2: variant of SP66; VH HM4 SEQ ID NO: 10, VL LM2 SEQ ID NO: 13 (antibody, V domains shown)
VH: EIQLVQSGAEVKKPGSSVKVSCKVTGHSITRGSSWHWMRQAPGQGLEWIGYIHYGGGTSYNPSLKSRATLTRDTSTNTFYMELSSLRSEDTAFYFCARYSYDITYRWFFDVWGQGTLVTVSS
VL: DIQMTQSPSTLSASVGDRVTITCRASQNIGTSIHWYQQKPGKAPKLLIKRASESISGVPSRFSGSGSGTEFTLTISSLQPDDFATYYCQQNNNWPLTFGQGTKVEVK
On to B5, for which the ka in assay [1] was found to be 4.08e+06 M⁻¹ s⁻¹.

B6: HM4 LM3: variant of SP66; VH HM4 SEQ ID NO: 10, VL LM3 SEQ ID NO: 14 (antibody, V domains shown)
VH: EIQLVQSGAEVKKPGSSVKVSCKVTGHSITRGSSWHWMRQAPGQGLEWIGYIHYGGGTSYNPSLKSRATLTRDTSTNTFYMELSSLRSEDTAFYFCARYSYDITYRWFFDVWGQGTLVTVSS
VL: DIQMTQSPSTLSASVGDRVTITCRASQNIGTSIHWYQQKPGKAPKLLIKYASESISGVPSRFSGSGSGTEFTLTISSLQPDDFATYYCQQNNNWPLTFGQGTKVEVK
B6: the ka in assay [1] turned out to be 2.88e+06 M⁻¹ s⁻¹.

B7: HM5 LM2: variant of SP66; VH HM5 SEQ ID NO: 11, VL LM2 SEQ ID NO: 13 (antibody, V domains shown)
VH: EIQLVQSGAEVKKPGSSVKVSCKVTGHSITRGSSWHWMRQAPGQGLEWIGYIHYGGGTSYNPSLKSRITITRDTSTNTFYMELSSLRSEDTAFYFCARYSYDITYRWFFDVWGQGTLVTVSS
VL: DIQMTQSPSTLSASVGDRVTITCRASQNIGTSIHWYQQKPGKAPKLLIKRASESISGVPSRFSGSGSGTEFTLTISSLQPDDFATYYCQQNNNWPLTFGQGTKVEVK
For B7, in assay [1], the ka is 4.8e+06 M⁻¹ s⁻¹.

B8: HM3 LM2: variant of SP66; VH HM3 SEQ ID NO: 9, VL LM2 SEQ ID NO: 13 (antibody, V domains shown)
VH: EIQLVQSGAEVKKPGSSVKVSCKVTGHSITRGSSWHWMRQAPGQGLEWIGYIHYGGGTSYNPSLKSRATLTRDTSTNTAYMELSSLRSEDTAFYFCARYSYDITYRWFFDVWGQGTLVTVSS
VL: DIQMTQSPSTLSASVGDRVTITCRASQNIGTSIHWYQQKPGKAPKLLIKRASESISGVPSRFSGSGSGTEFTLTISSLQPDDFATYYCQQNNNWPLTFGQGTKVEVK
On to B8, for which, in assay [1], the ka stood at 2.65e+06 M⁻¹ s⁻¹.

B9: chi 5F3: chimeric anti-MUC1 SEA antibody of WO 2021/186427; variable regions SEQ ID NOs: 42 and 43; parent of the humanized antibodies (antibody, V domains shown)
VH: MRVLILLCLFTAFPGVLSDVQVQESGPDLVKPSQSLSLTCTVTGHSITRGSSWHWIRQFPGNKLEWMGYIHYGGGTSYNPSLKSRISITRDTSKNQFFLQLNSVTTEDTATFFCARYSYDITYRWFFDVWGAGTTVIVSS
VL: MVSTPQFLVFLLFWIPASRGDILLTQSPAILSVSPGERVSFSCRASQNIGTSIHWYQQRKNGSPRLLIKYASESISGIPSRFSGSGSGTDFTLSINSVESEDMADYYCQQNNNWPLTFGAGTKLELK
notes: chimeric anti-MUC1 SEA antibody of WO 2021/186427; parent of the humanized antibodies
In the case of B9, the results for the “binding to MUC1 mutant (in words)” value in assay [2] and in assay [3] were “lost” and “maintained”, respectively. The ka in assay [1] stood at 4.39e+06 M⁻¹ s⁻¹.
